Measured values published in patent publication US20150010586A1 (ACADEMISCH ZIEKENHUIS LEIDEN H O D N LUMC, published 2015).

What was measured:
Assay in all cases: cellular competition assay vs FL-labelled reference peptide on B cells; affinity category (high/good IC50<5 uM, intermediate 5-15 uM, low >15-50 uM)
HLA-A*0101 = target: T1, HLA-A*0101 (human)
T1 construct: whole, on cells; also called A1

HLA-A*0301 = target: T2, HLA-A*0301 (human)
T2 construct: whole, on cells; Class I molecule on intact B cells (EKR); also called A3

HLA-A*1101 = target: T3, HLA-A*1101 (human)
T3 construct: whole, on cells; Class I molecule on intact B cells (BVR)

CTTIHYNY (also called A1 (229-236)) [p53 229-236 CTTIHYNY]
IC50 (HLA-A*0101): 5 to 15 µM

GTAKSVTCTY (also called A1 (117-126); A3 (117-126)) [p53 117-126 GTAKSVTCTY]
IC50 (HLA-A*0101): 5 to 15 µM
IC50 (HLA-A*0301): 5 to 15 µM

RVRAMAIY (also called A3 (156-163)) [p53 156-163 RVRAMAIY]
IC50 (HLA-A*0301): 5 to 15 µM

GGSRAHSSHLK (also called A3 (360-370)) [p53 360-370 GGSRAHSSHLK]
IC50 (HLA-A*0301): 5 to 15 µM

GQSTSRHKK (also called A11 (374-382)) [p53 374-382 GQSTSRHKK]
IC50 (HLA-A*1101): 5 to 15 µM

YLDDRNTFRH (also called A1 (205-214)) [p53 205-214 YLDDRNTFRH]
IC50 (HLA-A*0101): 5 to 15 µM
